For 1 molecule, affinity, % cells with label (after chimera supernatant) and loss of mast cells carrying IgE results are on record in patent US20180230236A1.

Assay [1] addresses canine IgE (canine monoclonal IgE from mouse x dog heterohybridoma cell line 2.39) (canine). Put plainly: affinity estimated from titration to end signal on IgE coated ELISA microtiter plates.
For assay [2] the target is unchanged. Put plainly: flow cytometry; C2 cells loaded with APC-canine IgE, then supernatant of chimera-transfected HEK 293 for 60 min at room temperature; displacement of IgE from FcεRI.
Assay [3] shares this target. Put plainly: flow cytometry; displacement of APC-canine IgE from FcεRI on C2 cells by chimera supernatant.

Chain of canine IgE (canine monoclonal IgE from mouse x dog heterohybridoma cell line 2.39) (canine) (P25054 whole entry): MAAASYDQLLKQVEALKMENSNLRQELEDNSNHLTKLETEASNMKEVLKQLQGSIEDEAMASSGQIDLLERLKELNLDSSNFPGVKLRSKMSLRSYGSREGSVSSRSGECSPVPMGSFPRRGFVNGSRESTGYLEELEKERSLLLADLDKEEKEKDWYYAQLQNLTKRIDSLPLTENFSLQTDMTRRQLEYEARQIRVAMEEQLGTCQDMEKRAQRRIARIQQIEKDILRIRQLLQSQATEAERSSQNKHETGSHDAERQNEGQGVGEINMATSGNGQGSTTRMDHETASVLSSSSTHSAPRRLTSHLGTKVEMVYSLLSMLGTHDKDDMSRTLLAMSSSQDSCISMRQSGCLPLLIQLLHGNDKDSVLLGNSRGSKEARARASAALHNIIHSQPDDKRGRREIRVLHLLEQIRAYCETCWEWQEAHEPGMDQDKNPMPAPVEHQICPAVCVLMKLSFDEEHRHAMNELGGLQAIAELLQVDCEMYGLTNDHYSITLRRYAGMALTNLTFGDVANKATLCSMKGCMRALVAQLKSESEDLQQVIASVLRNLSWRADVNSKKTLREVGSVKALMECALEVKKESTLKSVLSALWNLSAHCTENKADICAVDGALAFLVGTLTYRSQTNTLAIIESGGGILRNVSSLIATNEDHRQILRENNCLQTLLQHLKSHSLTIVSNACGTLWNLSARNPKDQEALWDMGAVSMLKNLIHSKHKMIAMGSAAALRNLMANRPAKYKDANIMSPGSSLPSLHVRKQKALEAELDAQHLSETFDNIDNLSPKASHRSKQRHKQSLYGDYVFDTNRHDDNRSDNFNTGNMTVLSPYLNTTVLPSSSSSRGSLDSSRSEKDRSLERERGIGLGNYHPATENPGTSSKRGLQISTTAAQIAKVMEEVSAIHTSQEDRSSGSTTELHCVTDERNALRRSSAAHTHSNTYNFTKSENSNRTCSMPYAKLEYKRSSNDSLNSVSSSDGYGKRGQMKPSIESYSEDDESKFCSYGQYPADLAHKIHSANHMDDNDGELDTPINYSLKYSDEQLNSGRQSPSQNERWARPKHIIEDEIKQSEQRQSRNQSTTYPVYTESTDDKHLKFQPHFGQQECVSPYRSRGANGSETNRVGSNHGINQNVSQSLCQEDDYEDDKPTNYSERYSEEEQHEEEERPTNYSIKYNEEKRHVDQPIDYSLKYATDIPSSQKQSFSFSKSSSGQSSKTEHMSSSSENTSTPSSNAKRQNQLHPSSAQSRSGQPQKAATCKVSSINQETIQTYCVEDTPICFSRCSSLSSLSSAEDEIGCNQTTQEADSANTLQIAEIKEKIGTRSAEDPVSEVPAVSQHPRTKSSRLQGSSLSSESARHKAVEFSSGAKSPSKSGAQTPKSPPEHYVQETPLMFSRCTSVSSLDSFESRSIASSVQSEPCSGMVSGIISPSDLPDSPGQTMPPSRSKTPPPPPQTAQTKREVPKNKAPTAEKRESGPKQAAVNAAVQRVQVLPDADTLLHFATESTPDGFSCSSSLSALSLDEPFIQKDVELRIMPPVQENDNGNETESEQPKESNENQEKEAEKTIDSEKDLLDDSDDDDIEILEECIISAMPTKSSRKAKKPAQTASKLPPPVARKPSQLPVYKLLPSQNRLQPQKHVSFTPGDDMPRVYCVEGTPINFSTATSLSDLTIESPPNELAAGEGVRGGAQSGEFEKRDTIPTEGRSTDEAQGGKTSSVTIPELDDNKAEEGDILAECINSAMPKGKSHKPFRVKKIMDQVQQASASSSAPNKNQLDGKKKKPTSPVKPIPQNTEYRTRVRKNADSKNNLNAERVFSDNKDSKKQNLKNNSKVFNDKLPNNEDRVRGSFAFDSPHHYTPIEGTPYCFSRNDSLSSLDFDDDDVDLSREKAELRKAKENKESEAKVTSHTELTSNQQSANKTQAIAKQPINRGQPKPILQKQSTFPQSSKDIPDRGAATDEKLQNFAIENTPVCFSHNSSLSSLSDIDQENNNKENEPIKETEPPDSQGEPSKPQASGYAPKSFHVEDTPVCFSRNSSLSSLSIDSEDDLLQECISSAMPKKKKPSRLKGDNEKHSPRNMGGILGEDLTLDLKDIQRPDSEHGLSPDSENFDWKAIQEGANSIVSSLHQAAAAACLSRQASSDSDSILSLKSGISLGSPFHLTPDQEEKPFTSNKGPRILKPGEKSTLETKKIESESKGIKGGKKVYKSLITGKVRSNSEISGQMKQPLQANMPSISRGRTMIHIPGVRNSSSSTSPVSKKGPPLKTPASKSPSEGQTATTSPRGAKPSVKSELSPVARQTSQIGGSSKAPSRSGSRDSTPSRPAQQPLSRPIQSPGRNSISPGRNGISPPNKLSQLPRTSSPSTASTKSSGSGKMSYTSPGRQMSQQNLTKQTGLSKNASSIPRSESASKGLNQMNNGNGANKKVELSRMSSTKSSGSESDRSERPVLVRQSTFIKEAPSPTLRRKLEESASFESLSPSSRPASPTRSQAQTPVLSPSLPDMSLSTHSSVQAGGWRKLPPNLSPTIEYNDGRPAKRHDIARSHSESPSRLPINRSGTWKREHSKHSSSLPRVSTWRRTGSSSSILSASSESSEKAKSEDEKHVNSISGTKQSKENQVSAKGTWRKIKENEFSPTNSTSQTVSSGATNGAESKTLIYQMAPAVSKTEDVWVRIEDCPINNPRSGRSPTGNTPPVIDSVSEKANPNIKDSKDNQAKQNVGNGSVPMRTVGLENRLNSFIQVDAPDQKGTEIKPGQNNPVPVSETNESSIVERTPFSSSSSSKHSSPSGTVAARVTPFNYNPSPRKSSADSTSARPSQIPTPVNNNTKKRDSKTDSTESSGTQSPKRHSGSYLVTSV

B1: chimera of canine FcεRI alpha chain x scFv-5.91 (protein)
chain: DTLKPTVSMNPPWNTILKDDSVTLTCTGNNSLEVDSAVWLHNNTTLQETTSRLDINKAQIQDSGEYRCRENRSILSDPVYLTVFTEWLILQASANVVMEGESFLIRCHSWKNLRLTKVTYYKDGIPIRYWYENFNISISNVTTKNSGNYSCSGQIQQKGYTSKVLNIIVKKEPTKQNKYSGLQGGGGSGGGGSGGGGSEVQLQQSGPELVKPGASMKISCKASGYSITGYTIHWVKQSHGKNLEWIGLINPYTGGITYNQNFKGKATLTVDKSSSTAYMELLSLTSEDSAVYYCSRGPYGNFYAMDYWGQGTSVTVSSGGGGSGGGGSGGGGSDIQMTQSPASLSASVGETVTITCRASGNIHNYLAWYQQKQGKSPQLLVYNAKTLADSVPSRFSGSGSGTQFSLKINSLQPEDFGSYYCQHFWSTPYTFGGGTKLEIKRA
As to B1, in assay [1], the affinity is 100 pM. In assay [2], this molecule gave a % cells with label (after chimera supernatant) of 4.11%. Also, the loss of mast cells carrying IgE in assay [3] was more than 50%.
